Reference: doi:10.1101/2024.07.03.601791
pKd: −log10 of the molar value.

Target: PR20 modified with a dansyl group at the N-terminus (Dnc-PR20)
Assay: other fluorescence titration

Kapβ2 Δloop, sequence (Q92973 9-898, stated change not applied): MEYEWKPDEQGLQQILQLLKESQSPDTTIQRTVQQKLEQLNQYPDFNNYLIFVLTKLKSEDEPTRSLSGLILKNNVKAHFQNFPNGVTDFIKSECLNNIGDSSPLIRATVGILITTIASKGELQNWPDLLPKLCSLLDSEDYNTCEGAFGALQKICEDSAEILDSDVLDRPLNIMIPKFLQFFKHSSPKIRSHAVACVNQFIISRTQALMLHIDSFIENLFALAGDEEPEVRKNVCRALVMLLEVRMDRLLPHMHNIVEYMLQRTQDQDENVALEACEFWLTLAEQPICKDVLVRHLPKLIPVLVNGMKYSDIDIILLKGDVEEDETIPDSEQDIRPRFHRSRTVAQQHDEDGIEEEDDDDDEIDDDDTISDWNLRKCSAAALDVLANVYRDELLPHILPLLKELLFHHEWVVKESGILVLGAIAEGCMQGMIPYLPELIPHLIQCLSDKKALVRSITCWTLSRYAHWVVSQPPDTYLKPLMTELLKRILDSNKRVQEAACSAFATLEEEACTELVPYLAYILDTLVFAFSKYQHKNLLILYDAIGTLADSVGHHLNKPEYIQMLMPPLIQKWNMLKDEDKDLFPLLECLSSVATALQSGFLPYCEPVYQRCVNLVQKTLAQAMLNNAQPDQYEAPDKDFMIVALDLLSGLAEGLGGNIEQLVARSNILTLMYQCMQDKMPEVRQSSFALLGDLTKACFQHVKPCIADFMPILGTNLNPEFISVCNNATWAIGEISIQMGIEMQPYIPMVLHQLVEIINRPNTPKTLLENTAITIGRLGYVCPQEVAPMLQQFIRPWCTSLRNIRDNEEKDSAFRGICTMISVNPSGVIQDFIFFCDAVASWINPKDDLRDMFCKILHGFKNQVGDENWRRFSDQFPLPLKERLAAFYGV

- pKd: 6.51
Substance: Kapβ2 Δloop (from UniProt Q92973-2 1-890) (natural protein)
